B1: Cilia- and flagella-associated protein 418 (Homo sapiens), Q96NL8 (parent)
chain: MAEDLDELLDEVESKFCTPDLLRRGMVEQPKGCGGGTHSSDRNQAKAKETLRSTETFKKEDDLDSLINEILEEPNLDKKPSKLKSKSSGNTSVRASIEGLGKSCSPVYLGGSSIPCGIGTNISWRACDHLRCIACDFLVVSYDDYMWDKSCDYLFFRNNMPEFHKLKAKLIKKKGTRAYACQCSWRTIEEVTDLQTDHQLRWVCGKH
partner: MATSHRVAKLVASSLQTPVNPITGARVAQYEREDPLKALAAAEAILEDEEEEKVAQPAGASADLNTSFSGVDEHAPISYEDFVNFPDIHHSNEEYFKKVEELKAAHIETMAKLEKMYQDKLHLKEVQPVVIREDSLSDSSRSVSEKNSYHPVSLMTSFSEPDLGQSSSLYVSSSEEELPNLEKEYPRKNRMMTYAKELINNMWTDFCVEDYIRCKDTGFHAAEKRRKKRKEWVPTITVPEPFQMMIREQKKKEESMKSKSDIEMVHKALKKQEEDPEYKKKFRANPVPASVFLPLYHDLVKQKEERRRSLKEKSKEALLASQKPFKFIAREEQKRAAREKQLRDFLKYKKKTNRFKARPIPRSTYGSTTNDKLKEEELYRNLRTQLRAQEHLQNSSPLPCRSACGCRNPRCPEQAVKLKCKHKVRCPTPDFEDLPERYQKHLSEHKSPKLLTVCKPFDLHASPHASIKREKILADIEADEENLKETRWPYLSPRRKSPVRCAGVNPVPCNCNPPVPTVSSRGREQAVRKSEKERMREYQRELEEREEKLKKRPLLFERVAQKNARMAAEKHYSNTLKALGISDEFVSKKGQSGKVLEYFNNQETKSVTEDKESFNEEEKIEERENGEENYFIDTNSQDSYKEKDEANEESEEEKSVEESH

Variants of: B1
Details: with FAM161A

Variant	effect of a mutation on the interaction
MAEDLDELLDEVESKFCTPDLLRRGMVEQPKGCGGGTHSSDRNQAKAKETLRSTETFKKEDDLDSLINEILEEPNLDKKPSKLKSKSSGNTSVRASIEGLGKSCSPVYLGGSSIPCGIGTNISWRACDHLRCIACDFLVVSYDDYMWDKSCDYLFFRNNMPEFHKLKAKLIKKKGTWAYACQCSWRTIEEVTDLQTDHQLRWVCGKH [R177W]	with no effect
MAEDLDELLDEVESKFCTPDLLRRGMVEQPKGCGGGTHSSDRNQAKAKETLRSTETFKKEDDLDSLINEILEEPNLDKKPSKLKSKSSGNTSVRASIEGLGKSCSPVYLGGSSIPCGIGTNISWRACDHLRCIACDFLVVSYDDYMWDKSCDYLFFRNNMPEFHKLKAKLIKKKGTRAYACRCSWRTIEEVTDLQTDHQLRWVCGKH [Q182R]	with no effect

Source: IntAct's records for PubMed 36233334
